Results from patent publication US9504759B2, “Surface modified proteinaceous spherical particles and uses thereof” (BAR-ILAN UNIVERSITY, priority 2011, dated 2016).
Square brackets hold non-standard residues; d marks the D form. Ends that are not written are not given here. Peptide text beside a SMILES is read from it. Nle = CCCC[C@H](N)C(=O)O

Key:
Aβ40 [1] = target: T1, Aβ40 (Homo sapiens, UniProt P05067); type: biochemical; settings: for effect on rate (kinetics) of Aβ aggregation: ThT assay monitored for three days of incubation; for effect on Aβ aggregation (ThT fluorescence): molar ratio of Aβ to peptide or peptide equivalent 1:2, 1:4, 1:6.5, SMOP BSA:KLVFF 1:500, three days, FIG. 2A
T1 construct: incubating fresh monomerized (non-aggregated) solutions of Aβ40
Description: In addition, an indirect assay (ThT [Thioflavin T] assay) was performed as follows. […] The fluorescence is measured and correlated to presence of amyloid plaque formations. Agents which bind and inhibit amyloid plaque formation decrease fluorescence of ThT. The inhibitory activity of KLVFF (SEQ ID NO 1)-modified SMOPs on Aβ40 aggregation was determined in black 96-well flat-bottom plates by incubating fresh monomerized (non-aggregated) solutions of Aβ40 (33 micromolar (μM), 15 μl)with different preparations of the SMOPs (25 μl, Table 1) in PBS. PBS was added to reach a volume of 50 μl, giving a final concentration of 10 μM for Aβ40. […] The plates were sealed with aluminum foil and incubated while shaking at 750 rpm at 37° C. for 72 hours to induce aggregation. Following the incubation, a solution of ThT (24 μM, 150 μl) in glycine buffer (50 millimolar (mM), pH 8.5) was added to each well and the fluorescence of amyloid-bound ThT was immediately measured using a plate reader (Infinite M200, Tecan, Switzerland) at excitation and emission wavelengths of 430 and 492 nm, respectively. The ThT solution was freshly prepared by diluting a ThT stock solution (1 mM, in water) with glycine buffer (50 mM, pH 8.5). Experiments were performed in quadruplicate.
To evaluate the inhibitory effect of KLVFF (SEQ ID NO 1)-modified SMOPs on Aβ aggregation and kinetics, soluble Aβ40 (0.5 nanomol, nmol) was incubated in the absence and presence of different preparations of the SMOPs. Amyloid plaque formation was then monitored by a ThT assay for three days of incubation.

PC12 cells = assay: Reduction of Aβ-induced toxicity in PC12 cells (MTT assay); type: cell-based, rat; settings: for effect on toxicity of aggregated Aβ in PC12 cells (cell viability, MTT): agent:Aβ40 4:1 (2 nmol : 0.5 nmol), aged 48 hours, cells 24 hours, FIG. 2B
Description: Prior to the addition of the SMOPs or soluble peptides to the cells, the extent of Aβ40 aggregation in each sample was determined by ThT assay as described above. On the day of the experiment, the medium was replaced with fresh medium (50 μl) and the aged samples (50 μ) were then diluted by a factor of two in the medium. Control wells received PBS (50 μl) only. Cells were incubated for an additional 24 hours and cell viability was then determined by the MTT assay as described above. Each experiment was performed in quadruplicate and repeated three times.

FITC-Aβ40 = target: T2, FITC-Aβ40 (Homo sapiens, UniProt P05067); assay: Direct in vitro binding assay with FITC-Aβ40 (fluorescent microscopy, FACS); settings: soluble FITC-Aβ40 in PBS at 37° C., after extensive washing; fluorescent microscopy and FACS
T2 construct: incubated with soluble FITC-Aβ40
Description: Binding of KLVFF (SEQ ID NO 1)-modified SMOP to Aβ was assessed using a fluorescent modified Aβ known as FITC-Aβ40 (fluorescein isothiocyanate) in a direct in vitro assay. In order to confirm that the conjugated KLVFF (SEQ ID NO 1) fragments on SMOPs preserved their recognition capability to bind full length Aβ following the sonochemical process and SMOP generation, KLVFF (SEQ ID NO 1)-modified SMOPs were incubated with soluble FITC-Aβ40 (25 μ, 0.5 nanomolar, nM) in PBS at 37° C. for different periods under constant agitation (750 revolutions per minute (rpm)). At each time point, samples were diluted with cold PBS and the microspheres were washed twice with cold PBS. Ten thousand particles were then analyzed immediately by FACS.
As controls, proteinaceous SMOP without surface modification (prepared as in example 1A, without the addition of a KLVFF (SEQ ID NO 1) peptide) (naked BSA spheres) were prepared. FVKLF-modified SMOP was also prepared as a control, as in Example 1C.

Aβ40 [2] = target: T1, Aβ40; assay: TEM analysis of samples taken from the ThT assay; type: biochemical; settings: 72 hour incubation
[3] = Administration of SMOP to rats to demonstrate safety; type: in vivo; settings: intravenously via tail vein, from 100 μl to highest amount 200 µL, observed 2 weeks; BSA:KLVFF 1:500
Description: SMOPs modified with KLVFF (SEQ ID NO 1) (ratio of BSA:KLVFF (SEQ ID NO 1) of 1:500) were used in vivo for toxicological studies. Rats weighing about 250 g each were injected intravenously, via their tail vein, with increasing amounts of the SMOP starting from 100 μl and following an up-down protocol based on the outcome of the initial dose.

[4] = test system: murine microglia (BV-2) cells; assay: Phagocytosis by murine microglia (BV-2) cells (confocal microscopy, SEM, FACS); type: cell-based; settings: LPS-treated cells, 30 minutes exposure

T1 sequence (P05067 672-711 limits assumed): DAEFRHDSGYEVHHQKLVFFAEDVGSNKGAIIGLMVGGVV
T2 sequence (P05067 672-711 limits assumed): as above

| Compound | effect on rate (kinetics) of Aβ aggregation (Aβ40 [1]) | effect on Aβ aggregation (ThT fluorescence) (Aβ40 [1]) | FITC-Aβ40 accumulated on the surface of the particles (fluorescent signal) (FITC-Aβ40) | formation of Aβ40 fibrils (TEM) (Aβ40 [2]) | effect on toxicity of aggregated Aβ in PC12 cells (cell viability, MTT) (PC12 cells) | effect on uptake of aggregated FITC-Aβ by BV-2 cells [4] | also measured |
| --- | --- | --- | --- | --- | --- | --- | --- |
| CCCC[C@@H]1NC(=O)[C@@H](CC(C)C)NC(=O)[C@H](CCCCN)NC(=O)[C@@H](CO)NC(=O)[C@H](Cc2c[nH]cn2)NC(=O)[C@@H](Cc2c[nH]c3ccccc23)NC1=O [[lJwHsK], Cyclo-D-leucine-L-noreucine-D-tryptophan-L-histidine-D-serine-L-lysine] (cyclo(K[dL][Nle][dW]H[dS])) | – | – | – | – | – | – | effect on amyloid aggregation / formation (in words) (Aβ40 [1]): drastic effect on amyloid aggregation; reduction of Aβ-induced toxicity in PC12 cells (cyclic peptide) (PC12 cells): effective in reducing Aβ-induced toxicity |
| FVKLF-modified SMOPs: SMOPs formed with scrambled peptide FVKLFC-NH2 (SEQ ID NO 4); comparator in in vitro studies | no or little effect | no or little effect | significantly lower amount of FITC-Aβ40 was accumulated | no inhibitory effect | – | – | – |
| KLVFF-NH2 | – | – | – | – | little or no effect on toxicity | – | – |
| KLVFF-modified SMOP: oil-filled spherical BSA particles with KLVFFC-NH2 (SEQ ID NO 3) attached via disulfide bonds, prepared by sonication | dramatically slowed the rate of Aβ aggregation | significantly decreased the aggregation of Aβ in a dose-dependent manner | intense fluorescent signals | completely arrests the formation of fibrils | significantly reduced | – | immediate toxicity in rats [3]: did not cause immediate toxicity |
| fucoidan | – | – | – | – | – | reduced the uptake of the aggregated Aβ | – |
| pertussis toxin [PTX] | – | – | – | – | – | reduced the uptake of the aggregated Aβ | – |
